Source: US12366576B2, “Compositions, assays, and methods for direct modulation of fatty acid metabolism” (Dana-Farber Cancer Institute, Inc., priority 2016, dated 2025)
Bridge positions count the residues as written; N and C are the ends. Square brackets hold non-standard residues; d marks the D form. Ends that are not written are not given here. S5 = C=CCCC[C@](C)(N)C(=O)O

Target: T1, VLCAD (Homo sapiens, UniProt P49748)
T1 construct: 10x His (N); made in house; host or cells: E. coli BL21(DE3), pET19b
T1 sequence (P49748 40-655): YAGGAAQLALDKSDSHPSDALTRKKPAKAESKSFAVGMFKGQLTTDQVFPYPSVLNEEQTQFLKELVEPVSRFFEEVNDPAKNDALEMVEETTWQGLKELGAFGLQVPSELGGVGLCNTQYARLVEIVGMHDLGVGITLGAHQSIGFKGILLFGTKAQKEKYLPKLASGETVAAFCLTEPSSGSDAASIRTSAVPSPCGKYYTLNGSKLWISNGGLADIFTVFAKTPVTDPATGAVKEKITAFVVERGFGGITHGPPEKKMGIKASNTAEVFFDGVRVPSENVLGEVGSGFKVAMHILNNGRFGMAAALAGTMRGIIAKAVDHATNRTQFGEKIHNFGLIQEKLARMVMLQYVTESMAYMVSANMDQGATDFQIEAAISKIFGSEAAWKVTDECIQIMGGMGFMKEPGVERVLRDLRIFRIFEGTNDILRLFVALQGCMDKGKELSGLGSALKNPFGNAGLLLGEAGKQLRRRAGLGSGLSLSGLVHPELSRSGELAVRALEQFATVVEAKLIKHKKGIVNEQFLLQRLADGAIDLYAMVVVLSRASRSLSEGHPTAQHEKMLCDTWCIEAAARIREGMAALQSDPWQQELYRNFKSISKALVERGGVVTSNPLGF
Assay: In vitro VLCAD enzymatic activity assay (palmitoyl-CoA, ferrocenium hexafluorophosphate)
Type: biochemical
Details: 0.75 μM VLCAD pre-incubated overnight at 4° C. with 75 μM SAHB; substrate palmitoyl-CoA
Procedure: To assess whether the direct MCL-1/VLCAD binding interaction influences VLCAD enzymatic activity, an in vitro enzymatic activity assay was conducted. Recombinant VLCAD was incubated with its substrate (palmitoyl-CoA) and ferrocenium hexafluorophosphate, a strong electrophile. As VLCAD acts upon its substrate and oxidizes it, the ferrocenium hexafluorophosphate is reduced, causing a change in absorbance that is readily measured.
VLCAD. Mature human VLCAD lacking its cleavable leader sequence (aa 40-655) (NP_000009.1) was subcloned into the pET19b vector (Novagen) using NdeI and XhoI restriction sites. Correct insertion was confirmed by DNA sequencing. […]
VLCAD enzymatic activity was measured as previously described (see, e.g., Doulias et al., Sci Signal, 6(256):rs1 (2013); Lehman et al., Anal. Biochem., 186(2):280-284 (1990)). […] Where VLCAD activity was assessed in the presence of MCL-1 SAHBs, 0.75 μM VLCAD was incubated overnight at 4° C. with 75 μM SAHB and the protein-peptide mixture was used to initiate the ferrocenium reaction. Decrease in ferrocenium absorbance as a function of time at 300 nm was recorded and the initial velocity (V0) was calculated in units of U/mg using the molar absorptivity of ferrocenium (ε=4.3 mM^−1 cm^−1 at 300 nm) (see, e.g., Izai et al.). […]

For “MCL-1 SAHBD: hydrocarbon-stapled peptide mimicking the MCL-1 BH3 domain (Stabilized Alpha-Helix of BCL-2 Domain), SEQ ID NO:19 (RKALETLRRVGDGV[S5]RNH[S5]TAF; staple 15-19)”, the “effect on VLCAD enzymatic activity” value was “caused a decrease in enzymatic activity”.
